Assay results as given in the supplement of paper PMC9170038.

Test system: MS2 coat protein
Assay: apparent KD of MS2 coat protein; designed switch direction (-1 OFF switch, 1 ON switch): 1; higher = weaker reporter binding
In short: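 The apparent KD reported per design is the median over clusters of curve fits to normalised cluster fluorescence. The RNA switches were transcribed on Illumina chips by stalled E. coli RNA polymerase. SNAP-549-labelled MS2 coat protein was titrated from 0.7 or 1.5 nM, doubling up to 3 µM, in Tris-HCl pH 7.5 buffer containing KCl, MgCl2, BSA, DTT, tRNA and Tween-20, with no input, 200 uM small-molecule ligand, or an oligonucleotide input.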

[1] = input ligand: microRNA oligo, concentration not stated
[2] = Eterna round: R95, input ligand: FMN 200 uM
[3] = Eterna round: R95, input ligand: microRNA oligo, concentration not stated
[4] = Eterna round: R95, input ligand: none

Sequence | apparent KD of MS2 coat protein (input ligand: FMN 200 uM) | apparent KD of MS2 coat protein [1] | apparent KD of MS2 coat protein (input ligand: none) | apparent KD of MS2 coat protein [2] | apparent KD of MS2 coat protein [3] | apparent KD of MS2 coat protein [4]
CUGCAACAUGAGGAUCACCCAUGUAACCCAAUUAUAGGAUAUGUGAUGGUGAUCGACAUGACAGAAGGGUGAUUGG [Arinra] (Eterna round: R96, puzzle: Same State 1) | 174 nM | 29.7 nM | 41.8 nM |  |  | 
AGUCCAGCCUGAGCUGGACAAAAGCAUGUACAUGAGGAUCACCCAUGUUCAUGUACAAGCUUUUUGCUCGUCUUCAA [salish99_208a_r3_097x] (puzzle: Sensor for hsa-mir-208a) |  |  |  | 701 nM | 13.7 nM | 525 nM
GCUAGUAUUAUUGUCAACAUGAGGAUCACCCAUGUAUGUUGGCAGGAUAUCGUUUGCAAAGCAAACGAGAAGGGCUAAACUAGC [Mat - Same State NG 3 - JL Mod - D10] (Eterna round: R96, puzzle: Same State NG 3) | 71.9 nM | 105 nM | 185 nM |  |  | 
GAGAGAUGGCGAGGAUAUUCGGUGAUAAUGAUGGAAGAAGGCGCUGACAUGAGGAUCACCCAUGUGGGAAUAAUCCAGAGAGAG [Parity 16 - Jieux - Same State NG 1] (Eterna round: R96, puzzle: Same State NG 1) | 306 nM | 154 nM | 257 nM |  |  | 
CAAACUUAGUAGGGUAGGUACCCAGGAUGACAUGAGGAUCACCCAUGUAAGAGCUUUUUGCUCGUCAUUAACAGUUG [JR_SHM208a_Sub018] (puzzle: Sensor for hsa-mir-208a) |  |  |  | 57.5 nM | 102 nM | 74.5 nM
GGAGAGAGAGCGCAGGAUAUUCAAGGAGAAACAUGAGGAUCACCCAUGUGAGAGAGAGAGGAGAGGGAGAAGGGUGAGAGAGAGG [Altered State 2-13 - Jieux - Same State 2] (puzzle: Same State 2) |  |  |  | 23.1 nM | 30.4 nM | 33.6 nM
GUGCUCGUGUAAGGAUAUGCUUCCGUUUCGGCUGCAGAAGGUACUAUUAUACAUGAGGAUCACCCAUGUCUCUUUUGUUUGGUG [salish99_SSNG1_r04_909] (Eterna round: R96, puzzle: Same State NG 1) | 89.1 nM | 55.5 nM | 87.9 nM |  |  | 
UUAUACUAGAGAGGAUAUGCAGAGGAUCACCCUGCAGAAGGCUCAUUAGAGAGGAUAUGCAGAGGAUCACCCUGCAGAAGGCUC [pwkr ssNG DX.21] (Eterna round: R96, puzzle: Same State NG 1) | 10.7 nM | 22.2 nM | 20.1 nM |  |  | 
CUGAAAUGUCAAGGAUAUCACGUCGAUUAGACGUGAGAAGGUGAUCUGCACAUGAGGAUCACCCAUGUGUUACAUGGGAAUCAG [Brourd's SSNG1/1-A2 mod 15] (Eterna round: R96, puzzle: Same State NG 1) | 289 nM | 90.3 nM | 624 nM |  |  | 
GGAGCCAAGGCAGGAUAUUCAUAUUAAUAAACAUGAGGAUCACCCAUGUAGGCCAGAAGGCCUUGGGAGAAGGGCCAUGGCUCG [Xeonanis - 13 mod5] (Eterna round: R96, puzzle: Same State NG 2) | 21.3 nM | 120 nM | 196 nM |  |  | 
AGUCCAGCCAAAGCUGGACAAAAGCAUGUACAUGAGGAUCACCCAUGUUCAUGUACAAGCUUUUUGCAAGUCAAAAG [Mat - hsa-mir-208a - Mod of JL - 77] (puzzle: Sensor for hsa-mir-208a) |  |  |  | 332 nM | 29.5 nM | 498 nM
CUUUUUAAUGCAGGAUAUGAUCAACAUGAGGAUCACCCAUGUGGUGUUGUGAGUAAGGAGAGUGAUCAGAAGGGCAUCUCCUCA [SS-NG2-LRO06] (Eterna round: R96, puzzle: Same State NG 2) | 186 nM | 73.6 nM | 83.6 nM |  |  | 
GACAUUCUAUCUCAGGAUAUCAUGUCAAAGACAUGAGGAUCACCCAUGUACCAGGAAACUGGUUAUGAGAAGGGAGAUAGAAUGG [Mat - Same State 2 - Mod - D47] (puzzle: Same State 2) |  |  |  | 122 nM | 119 nM | 221 nM
GUGCAACCGUGUGAGGAUAUCGGUGAACAAACAUGAGGAUCACCCAUGUCCGAAGCUCGGUUCUCCGAGAAGGCGCACAGUUGCA [Same State 2 - Mod of Erisin v.3] (puzzle: Same State 2) |  |  |  | 72.6 nM | 105 nM | 224 nM
AGUCCAGCCUGAGCUGGACAAAAGCAUGUACAUGAGGAUCACCCAUGUCAUGUACAAGCUUUUUGCUCGUUUUAAAA [Zipper 46 - 13] (Eterna round: R96, puzzle: Sensor for hsa-mir-208a) | 633 nM | 12.9 nM | 611 nM |  |  | 
AUGGAGACCGGAGGAUAUGGACCAACAAUCGGUCCAGAAGGCUGCCCAUGGUAUACAUGAGGAUCACCCAUGUGGCCGCGGAGA [Eternabot solution 13] (Eterna round: R96, puzzle: Same State NG 1) | 65.8 nM | 69.2 nM | 102 nM |  |  | 
AAAUAAAACACAGGAUAUGCAGCCAAUACGGCGGCAGAAGGGUGAGACAUGAGGAUCACCCAUGUACACGUCCCACAGACGUGC [Mabege] (Eterna round: R96, puzzle: Same State NG 1) | 426 nM | 89.9 nM | 119 nM |  |  | 
AGUCCAGCCUGAGCUGGACAAAAGCAUGUACAUGAGGAUCACCCAUGUCAUGUACAAGCUUUUUGCUCGUCUUAAAA [JL zipper 46] (Eterna round: R96, puzzle: Sensor for hsa-mir-208a) | 685 nM | 13 nM | 677 nM |  |  | 
UUUGGGUGGCUGGAGGAUAUCCUGGUUGUUACAUGAGGAUCACCCAUGUGCCGCGCGGUUCGCGAGGAGAAGGCUGGCGGCCGUU (Eterna round: R96, puzzle: Same State 2) | 42.4 nM | 74.4 nM | 154 nM |  |  | 
UGUUGAAACUGAGGAUAUGGCGUGUGACGAAUGCCAGAAGGUAGUAGGAGCAACAUGAGGAUCACCCAUGUCCGGCGCAGACCC [Eternabot solution 16] (Eterna round: R96, puzzle: Same State NG 1) | 85.6 nM | 61.3 nM | 71.3 nM |  |  | 
AAAGACAUGGUGCAGGAUAUAUUAAUAGUCACAUGAGGAUCACCCAUGUUCAGAUAUCUGAACGAGUAGAAGGGCGAUGAAAAAA [SameState2 Malc#5] (Eterna round: R96, puzzle: Same State 2) | 530 nM | 28.7 nM | 204 nM |  |  | 
AGUCCUGAAUAAAUUAAACAGAGACAUGUACAUGAGGAUCACCCAUGUCAUGUACAAGUUCUAUGCUCGUCAUAUAA [Sensorship 19 - Jieux - Sensor for hsa-mir-208a] (puzzle: Sensor for hsa-mir-208a) |  |  |  | 23 nM | 14.6 nM | 24.7 nM
